Reference: the RNAGym collection of RNA variant scans (doi:10.7554/elife.80360)

B1: Hammerhead Ribozyme (parent)
chain: ACCGGAUGUGCUUUCCGGUCUGAUGAGUCCGUGAGGACGAAACAG

Variants of: B1
Assay: self-cleavage, relative activity (ratio to wild type); higher = more cleavage; co-transcriptional
AACGGAUGUGCUUUCCGGUCUGAUGAGUCCGUGAUGACGAAACAG [C2A G35U] showed a self-cleavage of 0.457. ACCGGAUGUGCUUUCCGGUCUAAUGAGUCCGUGAGGACUAAACAG [G22A G39U] showed a self-cleavage of 0.325. For ACCGGAUGUGCUUUCCGGUCUGAUGAGUUGGUGAGGACGAAACAG [C29U C30G], the self-cleavage was 0.546. For ACCGGAUGUGCUUUCCGGUCUGAUGAGUCUGUGAAGACGAAACAG [C30U G35A], the self-cleavage was 1.02. In the case of ACCGGAUGUGCUUUCCGGUCUGAUGAGUCCGUGUGGACGAAAUAG [A34U C43U], the self-cleavage is reported as 0.304. In the case of ACCGGAUGUGCUUUCCGGUCUGAUGAGUCCGUGAGGACGGUACAG [A40G A41U], the self-cleavage is reported as 0.31. ACCGGAUGUGCUUUCCGGUCCGAUGAGUCCGUGAGGACGAAUCAG [U21C A42U] showed a self-cleavage of 0.318. With ACCGGAUGUGCUUUCCGGUCAGAUGAGUCCGUGAGGAUGAAACAG [U21A C38U] the self-cleavage was 0.401. Variant ACCGGAUGUGCUAUCCGGUCUGAUGAAUCCGUGAGGACGAAACAG [U13A G27A] has a self-cleavage of 0.873. In the case of ACCGGAUGUGCUUUCCGGUCUGAUGAGUCUGUGAGGACGAAAAAG [C30U C43A], the self-cleavage is reported as 0.34. In the case of AACGGAUAUGCUUUCCGGUCUGAUGAGUCCGUGAGGACGAAACAG [C2A G8A], the self-cleavage is reported as 0.587. With ACGGGAUGUGCUUUCCGGUCAGAUGAGUCCGUGAGGACGAAACAG [C3G U21A] the self-cleavage was 0.236. Variant ACCGGAUGUGCUUUCAGGUCUGAUGAGUCCGUGAGGACGAAAUAG [C16A C43U] has a self-cleavage of 0.438. In the case of ACCGGAUGUGCUUUCCGGUCUGAUGAGUUCAUGAGGACGAAACAG [C29U G31A], the self-cleavage is reported as 0.994. For ACUGGAUGUGCAUUCCGGUCUGAUGAGUCCGUGAGGACGAAACAG [C3U U12A], the self-cleavage was 1.04. Variant ACCGGAUGUACUUUCCGGUCUGAUGAGUCCGUGAGGACGAAACAC [G10A G45C] has a self-cleavage of 0.93. ACCGGAUGUGCUUUCCGGUCUAAUGAGUCCGUGAGGACGAAACCG [G22A A44C] showed a self-cleavage of 0.372. ACCGGAUGUGCUUUCCGGUCUGCUGAGUCCGUGAGGACAAAACAG [A23C G39A] gave a self-cleavage of 0.298. ACCGGAUGUGCUUUCCGAACUGAUGAGUCCGUGAGGACGAAACAG [G18A U19A] gave a self-cleavage of 0.367. Variant ACCGGAUGUGCUUUCCGGUCUGAUGGGUCCGUGAAGACGAAACAG [A26G G35A] has a self-cleavage of 0.286. In the case of AACGGAUGUGCUUUCCGGUCUGAUGAGUCCGUGAGGACGAAACCG [C2A A44C], the self-cleavage is reported as 0.425. In the case of ACCGGAUGUGCUUUCCGGUCUGAUGAGUCUGUGGGGACGAAACAG [C30U A34G], the self-cleavage is reported as 0.961. GCCGGAUGUGCUUUCCGGUCUGAUGAGUCCGUGAGGAUGAAACAG [A1G C38U] gave a self-cleavage of 1.49. ACCGGAUGUGCUUUCCGGCCUGAUGAGUCCGUGAGGACGAAACAU [U19C G45U] gave a self-cleavage of 0.439. ACCGGAUGUGCUCUCCGGUCUGAUGAGUCCGUAAGGACGAAACAG [U13C G33A] gave a self-cleavage of 1.37. With ACCGGAUGUGCUUUCCGGUCUGAUGAGUCCGUGAGGAAGAAUCAG [C38A A42U] the self-cleavage was 0.283. With ACCGCAUGUGCUUUCCGGUCUGAUGAAUCCGUGAGGACGAAACAG [G5C G27A] the self-cleavage was 0.351. ACCGGAUGUGCUUUCCGGUCUGAUGAGUCCCUGAGGAUGAAACAG [G31C C38U] showed a self-cleavage of 0.94. Work on ACCGGAUGUGCUUUCCGGUCUGAUGAUUCCGUGAGGACGAACCAG [G27U A42C] yielded a self-cleavage of 0.294. Work on ACCGGAUGUGCUUUCCGGUCUGAUGAGUCCGUGGGGACGAAACGG [A34G A44G] yielded a self-cleavage of 1.23. Work on ACCGGAUGUGCUUUCCGGUCUGAUGAGCCCGAGAGGACGAAACAG [U28C U32A] yielded a self-cleavage of 0.984. ACCGGAUGUGCUUUCCGGUCUGAUGAGUUCGUGAGGAUGAAACAG [C29U C38U] showed a self-cleavage of 1.04. Work on ACCGGAUGUGCUUUCCGGUCUGCUGAGUCCGUGAGGACGAGACAG [A23C A41G] yielded a self-cleavage of 0.394. With AGCGGAUUUGCUUUCCGGUCUGAUGAGUCCGUGAGGACGAAACAG [C2G G8U] the self-cleavage was 0.387. Variant ACCGGGUGUGCUUUCCGGUCUGAUGAGUCCGUGAGGACGAAACUG [A6G A44U] has a self-cleavage of 0.483. For ACGGGAUGUGCUUUCCGGUCUGAUGAGUCCGUGAGGCCGAAACAG [C3G A37C], the self-cleavage was 0.293. ACCGGAUGUGCUUUCCCGUCUUAUGAGUCCGUGAGGACGAAACAG [G17C G22U] showed a self-cleavage of 0.284. ACCGGAUGUGCUUUCCGGCCUGAUGAGUCCGUGAGGACGAAACCG [U19C A44C] gave a self-cleavage of 0.325. Work on ACUGGAUGUGCUUUCCGGUCUGAUGAGUCCGUGAGGACGAAACCG [C3U A44C] yielded a self-cleavage of 0.522. In the case of ACCGGAUGUGCUUUCCGGACUGAUGAGUCCGUGAGGACGAAACGG [U19A A44G], the self-cleavage is reported as 0.512. ACCGGACGUGCUUUCCGGUCUGAUGAGUCCGUAAGGACGAAACAG [U7C G33A] showed a self-cleavage of 1.15. ACCGGAUGUGCGUUCCGGUCUGAUGAGUCCUUGAGGACGAAACAG [U12G G31U] showed a self-cleavage of 1.11. Work on ACCAGAUGUGCUUUCCGGUCCGAUGAGUCCGUGAGGACGAAACAG [G4A U21C] yielded a self-cleavage of 0.373. ACCGUAUGUGCUUUCCGGUCCGAUGAGUCCGUGAGGACGAAACAG [G5U U21C] showed a self-cleavage of 0.668. Variant ACCGGAUGUGCUUUCCGGUCUGGUCAGUCCGUGAGGACGAAACAG [A23G G25C] has a self-cleavage of 0.333. For ACCGGAUGUGCUUUCCGCUCUGAUGAGUCCGUGAGGACGACACAG [G18C A41C], the self-cleavage was 0.303. With ACCGGAUGUUCUUUCCGGUCUGACGAGUCCGUGAGGACGAAACAG [G10U U24C] the self-cleavage was 1.13. Work on ACCGGAUGUGGUUUCCGGUCUGAUGAGUCCGUGACGACGAAACAG [C11G G35C] yielded a self-cleavage of 0.668. For ACCCGAUGUGCUUGCCGGUCUGAUGAGUCCGUGAGGACGAAACAG [G4C U14G], the self-cleavage was 0.733. In the case of ACCGGAUGUGCUUUCAGGUGUGAUGAGUCCGUGAGGACGAAACAG [C16A C20G], the self-cleavage is reported as 0.316. In the case of ACCGGAUGCGCUUUCCGGUCUGAUGAGUCCCUGAGGACGAAACAG [U9C G31C], the self-cleavage is reported as 1. In the case of ACCGGAUGCGCUUUCCUGUCUGAUGAGUCCGUGAGGACGAAACAG [U9C G17U], the self-cleavage is reported as 0.897. ACCGGAUGUGCUUUCCGGUCUGAUGAGUCCGUGACUACGAAACAG [G35C G36U] gave a self-cleavage of 0.401. In the case of ACAGGAUGUGCUUUCCGGUCUGAUGAGUCCGUGAAGACGAAACAG [C3A G35A], the self-cleavage is reported as 0.376. In the case of ACCGGAGGUGCUUUCCGGUCUGAUGAGUCCGUGAGGACGAAACGG [U7G A44G], the self-cleavage is reported as 1.82. In the case of UCCGGAUGUGCUUUCCGGUCUGAUGAGUCCGUGAUGACGAAACAG [A1U G35U], the self-cleavage is reported as 0.451. Variant AGCGGAUGUGCUUUCCGGUCUGAUGAGUCAGUGAGGACGAAACAG [C2G C30A] has a self-cleavage of 0.374.
